Assay: label from the status in PepcDB records

Sequence | protein production
MASVSGNSTAPDSAAVVTVQDPLSDYVQGLFLDMKGDYWGAIDIFRKVLVRKPADPAVHYSISQSYYRLAVLDSARVYGEAAVRLDPSNRYYLRYLAVVAHDMRDYDRAAELYGQASLLEPDRTEIMYLQGLEYMAAKRLEPALEVFRKAVRIDPYNEAAFAQTLALEIALKHYPEAIDTSKQLLKLGGNERKIGITLAELYTKTGQETLAVQTLQELIAGDRSNITYWIALFDHYIMVGRNDDFHRELAVFLERASLPPESLHDLAKLYILRSGKDSLYVAPTIALLDELTARRPRDSELFMLKGMFGMMHGHQQEGVVLFRKAVQLDSSNATAWEYLISTQLDLGQKRQAFALLAKARRRLPGQRFRWSVLEGSLLLSSHKLRRAVAVLETVAGTKRKPGDPNLLIQANINLAMACDLLGMKKRSRSAYERVLDLDPHNTLAMNNLAYLFTEEGITLRKALRLATNAVMLEPENGVYLDTLGWVHYKLGNFELARQFLEKAAATGLDEPDIYRHLGEVYRKLGNEPKAREMLEKARTVEKTQGNKKSGH | failed
MASYFDEHDCEPSDPEQETRTNMLLELARSLFNRMDFEDLGLVVDWDHHLPPPAAKTVVENLPRTVIRGSQAELKCPVCLLEFEEEETAIEMPCHHLFHSSCILPWLSKTNSCPLCRYELPTDDDTYEEHRRDKARKQQQQHRLENLHGAMYT | failed
MASYSEDQCSWRGSGLSQAVKNVEQVWLRCAEGSVEWLYPAGALRLTLSPRLPWSAMGPGESSRSPVSVCVKPDPHWGGAQLYLERDGVLELLVGDETSTTPGPAHVRCFSALPGERPALFLQATPHRDISRRIAAFRYELRGDWTAQPAVNTDPVSSEGACRPCNNTEILMAVCTSDFVVRGNIRSVGTDSNLNAAVIKVSATRVYRQKFALFPESGRLTRSGEIRTPLQCGVRPGAGSFLFTGRVHFGEAWLGCAPRYKDFLKAYEQAKQSLMIPCTLVND | failed
MASYSLVESNSFGSENWCLKLQPSYKHGLLTGLSNGEIRLLDWSTGKSVQKIKASETAINDMKVIGSDFSAGHLVSSASIDAVKVFDIRTNDRIAQIQNEANSPFISLDSRHGLLACGTELQGIDAAVYIYDIRKWDTPLRSLIDSHHDDVTCIKFHPSDVNILLSGSTDGYTNIYDLKQDEEEDALHQVINYASIHSCGWLSPKRIFTLSHMETFAIHELNDKSDELKEPQPLDFGDVREIWNCDYVVDIYPGLIATGKTQENCGELCLLPFKDEKVDTENGIVIPHAHGDEVVRDIFIPAQHSNMLYSCGEDGCVKIWENKQGPLDIPENFWDYSKKMNVLGDDDREGSINLDEPLIIQKESVSTRPRKEKHKKAKKHSMKSRFKPY | failed
MATETLTKSDAITQSLRAAVDRNFNDQVAFLQRMVQFRSVRGEEAPQQEWLAQQFADRGYKVDTFSLADVDIASHPKAAPMDTIDPAGSMQVVATADSDGKGRSLILQGHIDVVPEGPVDLWSDPPYEAKVRDGWMIGRGAQDMKGGVSAMIFALDAIRTAGYAPDARVHVQTVTEEESTGNGALSTLMRGYRADACLIPEPTGHTLTRAQVGAVWFRLRVRGTPVHVAYSETGTSAILSAMHLIRAFEEYTKELNAQAVRDPWFGQVKNPIKFNVGIIKGGDWASSTAAWCELDCRLGLLTGDTPQEAMRGIEKCLADAQATDSFLSENPAELVWSGFQADPAVCEPGGVAEDVLTAAHKAAFNAPLDARLSTAVNDTRYYSVDYGIPALCYGPYGQGPHAFDERIDLESLRKTTLSIALFVAEWCGLRKL | not failed
MATETQIRIGVMGCADIARKVSRAIHLAPNATISGVASRSLEKAKAFATANNYPESTKIHGSYESLLEDPEIDALYVPLPTSLHVEWAIKAAEKGKHILLEKPVAMNVTEFDKIVDACEANGVQIMDGTMWVHNPRTALLKEFLSDSERFGQLKTVQSCFSFAGDEDFLKNDIRVKPGLDGLGALGDAGWYAIRATLLANNFELPKTVTAFPGAVLNEAGVILSCGASLSWEDGRTATIYCSFLANLTMEITAIGTKGTLRVHDFIIPYKETEASFTTSTKAWFNDLVTAWVSPPSEHTVKTELPQEACMVREFARLVGEIKNNGAKPDGYWPSISRKTQLVVDAVKESVDKNYQQISLSGR | not failed
MATIGLDRLYYSKITEDANGEETYAQPSVLAKAITAELSVELVEAILYADDGAAEVVKDFNSGTLTLGVDDIGPMVAADLTGASTDDNGVLISASENVGTPVAVGFRAQRANGTYRYFWLYRVKFGLPATNLQTKADSITFSTPTIEGTVMRRNKLDGLGKHPWKAEVTEGDPGVSSTTITGWFTEVYEPVYTPEP | failed
MATIGSLLLWAITIYSYMIIGYILMSWFPNARESSFGQFLGSIVEPYLAPFRKIIPPLGMIDISPIVAIFALTFARYGVHAIFF | failed
MATIHVDGKTLEVDGADNLLQACLSLGLDIPYFCWHPALGSVGACRQCAVKQYTDENDKRGRLVMSCMTPATDNTWISIEDEEAKQFRASVVEWLMTNHPHDCPVCEEGGHCHLQDMTVMTGHNERRYRFTKRTHQNQELGPFIAHEMNRCIACYRCVRYYKDYAGGTDLGVYGAHDNVYFGRVEDGVLESEFSGNLTEVCPTGVFTDKTHSERYNRKWDMQFAPSICHGCSSGCNISPGERYGEIRRIENRYNGSVNHYFLCDRGRFGYGYVNREDRPRQPLLVLSKQKLSLDGALDQAAALLKERKVVGIGSPRASLESNFALRELVGEGNFYSGINEGELDRLRLILQVMQEGPLPVPSIRDIEDHDAVFVLGEDLTQTAARIALALRQSVKGKAVEMAADMKVQPWLDAAVKNIAQHAQNPLFIASVSATRLDDVAEETVHAAPDDLARLGFAVAHAIDPSAPSVADLDPQAQAFAQRITDALLAAKRPLVVSGNSLGNKALIEAAANIAKALKQREKNGSISLVVGEANSLGLALFGGDSVEAALERLTSGQADAVVVLENDLYRRTDAARVDAALAAAKVVIVADHQQTATTAKAHLVLPAASFAEGDGTLVSQEGRAQRFFQVFDPTYYDARNMVREGWRWLHAIHSTLQGKRVDWTQLDHVTEAVAEAKPILAGIRDAAPAASFRIKGLKLAREPHRYSGRTAMRANISVHEPRTPQDIDSAFAFSMEGYSGSQEDRQQIPFAWSPGWNSPQAWNKFQDEVGGHLRAGDPGVRLIEPKGEGLDWFQAVPVPFSAKADSWKVVPLYHLFGSEENSSRAAPIQQRIPETYVALSKEDADRLGVNDGATLGFQLKGQALRLPLRIDEQLGAGLIGLPVGFAGIPAAIAGCSVEGLQ | failed
MATIIFAGRSNVGKSTLIYRLTGKKVRRGKRPGVTRKIIEIEWKNHKIIDMPGFGFMMGLPKEVQERIKDEIVHFIEDNAKNIDVAVLVVDGKAAPEIIKRWEKRGEIPIDVEFYQFLRELDIPTIVAVNKLDKIKNVQEVINFLAEKFEVPLSEIDKVFIPISAKFGDNIERLKNRIFEVIRERQGRRV | not failed
MATITVVKARQIFDSRGNPTVEVDIHTSNGIKVTAAVPSGASTGIYEALELRDGGSDYLGKGVSKAVGNVNNIIGPALIGKDPTQQTAIDNFMVHELDGTQNEWGWCKQKLGANAILAVSLAVCKAGAVVSGIPLYKHIANLAGNPKIVLPVPAFNVINGGSHAGNKLAMQEFMILPVGAASFKEAMKMGVEVYHHLKSVIKKKYGQDATNVGDEGGFAPNIQENKEGLELLKTAIEKAGYTGKVVIGMDVAASEFYSEDKTYDLNFKEENNNGSQKISGDALKDLYKSFVAEYPIVSIEDPFDQDDWEHYAKMTTECGTEVQIVGDDLLVTNPKRVAKAIAEKSCNALLLKVNQIGSVTESIEAVKMSKKAGWGVMTSHRSGETEDTFIADLAVGLSTGQIKTGAPCRSERLAKYNQLLRIEEELGSEAIYAGVNFRKPVEPY | failed
MATKARVMYDFAAEPGNNELTVTEGEIITVTNPNVGGGWLEGKNNKGEQGLVPTDYVEILPNDGKDPFSC | not failed
MATKIDKEACRAAYNLVRDDGSAVIWVTFRYDGATIVPGDQGADYQHFIQQCTDDVRLFAFVRFTTGDAMSKRSKFALITWIGEDVSGLQRAKTGTDKTLVKEVVQNFAKEFVISDRKELEEDFIRSELKKAGGANYDAQSE | not failed
MATLEITDIALVQPSHQPLSNDQTLSLSHLDNDNNLHVSFRYLRVYSSSSSTVAGESPSAVVSASLATALVHYYPLAGSLRRSASDNRFELLCSAGQSVPLVNATVNCTLESVGYLDGPDPGFVERLVPDPTREEGMVNPCILQVTMFQCGGWVLGASIHHAICDGLGASLFFNAMAELARGATKISIEPVWDRERLLGPREKPWVGAPVRDFLSLDKDFDPYGQAIGDVKRDCFFVTDDSLDQLKAQLLEKSGLNFTTFEALGAYIWRAKVRAAKTEEKENVKFVYSINIRRLMNPPLPKGYWGNGCVPMYAQIKAGELIEQPIWKTAELIKQSKSNTSDEYVRSFIDFQELHHKDGINAGTGVTGFTDWRYLGHSTIDFGWGGPVTVLPLSNKLLGSMEPCFFLPYSTDAAAGSKKDSGFKVLVNLRESAMPEFKEAMDKFHKGEFALS | failed
MATLTRLFIHPVKSMRGIGLTHALADVSGLAFDRIFMITEPDGTFITARQFPQMVRFTPSPVHDGLHLTAPDGSSAYVRFADFATQDAPTEVWGTHFTARIAPDAINKWLSGFFSREVQLRWVGPQMTRRVKRHNTVPLSFADGYPYLLANEASLRDLQQRCPASVKMEQFRPNLVVSGASAWEEDSWKVIRIGDVVFDVVKPCSRCIFTTVSPEKGQKHPAGEPLKTLQSFRTAQDNGDVDFGQNLIARNSGVIRVGDEVEILATAPAKIYGAAAADDTANITQQPDANVDIDWQGQAFRGNNQQVLLEQLENQGIRIPYSCRAGICGSCRVQLLEGEVTPLKKSAMGDDGTILCCSCVPKTALKLTRLEHHHHHH | failed
MATLYDAPVDELIDELAADLETRLDEPDWANYAKTGAGRELPPEQSDFWATRAASLLRKVAIDGPIGVKRLSEAYGSTTSGSNRYVVAPSTTTAGSRNIVRTILQQLEAEGLVEQQHDHGRVVTGDGRSLLDETAGDVIESLDRPELERYA | failed
MATPPFDPSLSPLKTVAVIGLGTMGTGIAEVLARAGREVVGIDISEAAAGHAVTALEASTARAVQRERLTEQERGDILARFRTFTDLQAAADADLVIEVTPESYEIKQQVLRALDGIVRADTILATGTNALSVTRLAADSAHPERVLGLHFFNPAPAMKLVEVVSSVLTAPTAVAAVTNLALDLGKEPVAVGDRPGFVADGLLFGYLNQAAAMYEAKYASREDIDAAMKLGCGLPMGPLALLDLIGVDTARTVLEAMYAESRDRLHAPAPILKQLSEAGLTGRKSGRGFYSYDEPGSATVVRDALTPLSGGPGEQGRTVRSVGVAGSGTMASGIAEVFAKAGYEVVLAARSEEKAQTAKARIGKSLSRSVDKGRLTAEAAAETLDRITPAGSYDAFADVDLALEAVAEDLEIKQQLFATFDKVCKPGAILATTTSSLPVVACARATSRPQDVIGMHFFNPAPAMKLVEVVRTVLTGDDVHATVREVCAKIRKHPVDCGDRAGFIVNALLFPYLNNAIKMVQEHYATLDDIDAAMKLGGGYPMGPFELLDVVGLDVSLAIEKVLHREFRDPGLAPAPLLEHLVAAGCLGRKTGRGFREYAKR | failed

Reference: a protein production outcome set (Wang et al. 2014)
